Data taken from paper doi:10.1101/2024.06.26.600780 (bioRxiv, 2024).
One block for each binder: values may come before it.

Molecular target: Green Fluorescent Protein (GFP), biotinylated (biotin (EZ-Link NHS-PEG4-Biotin))
Assay: BLI

binding result: binds
B1: Nb394 (VHH)
VHH: QVQLVESGGGLVQAGGSLRLSCAASGRTFSVSNMGWFRQAPGKERVFVAAIGWTTGSTYYADSVKGRFTISRDNTKNTVYLQMNSLKPEDTAVYRCAARRRGYSRVPMTPDEYEYWGQGTQVTVSS

binding result: binds
B2: Nb207 (VHH)
VHH: QVQLVESGGGLVQAGGSLRLSCAASGRTFSTAAMGWFRQAPGKERDFVAGIYWTVGSTYYADSAKGRFTISRDNAKNTVYLQMDSLKPEDTAVYYCAARRRGFTLAPTRANEYDYWGQGTQVTVSS

binding result: binds
B3: Nb395 (VHH)
VHH: QVQLVESGGGLVQTGDSLRLSCAASLRTFKSYAMGWFRQAPGKEREAVATISAEGDSTYYDDSVKGRFTISRDNAANTVYLQMNSLKPEDTAVYYCAASRFPYGLRLLQRRESDYWGQGTQVTVSS
